Here are results for one molecule from US20180171001A1.

Common to all, as to assay: cell-based or functional assay
Experiment [1] has as its target Env of HIV-1 strain 231965.c1 (HIV-1).
Experiment [2] deals with Env of HIV-1 strain 250-4 (HIV-1).
For experiment [3], the target named is Env of HIV-1 strain 251-18 (HIV-1).
Experiment [4] deals with Env of HIV-1 strain 3016.v5.c45 (HIV-1).
The target in experiment [5] is Env of HIV-1 strain 3365.v2.c20 (HIV-1).
The target in experiment [6] is Env of HIV-1 strain 3415.v1.c1 (HIV-1).
Experiment [7] concerns the target Env of HIV-1 strain Du172.17 (HIV-1).
Experiment [8] addresses Env of HIV-1 strain H086.8 (HIV-1).
For experiment [9], the target named is Env of HIV-1 strain PVO.4 (HIV-1).
For experiment [10], the target named is Env of HIV-1 strain R1166.c1 (HIV-1).
Experiment [11] concerns the target Env of HIV-1 strain REJO4541.67 (HIV-1).
The target of experiment [12] is Env of HIV-1 strain X1254_c3 (HIV-1).
For experiment [13], the target named is Env of HIV-1 strain YU2.DG (HIV-1).
Experiment [14] deals with Env of HIV-1 strain ZM109F.PB4 (HIV-1).
In experiment [15] the target is Env of HIV-1 strain ZM53M.PB12 (HIV-1).
Experiment [16] concerns the target Env of MuLV.
For experiment [17], the target named is Tier 2 15 virus panel.

B1: 8ANC195 IgG (antibody, V domains shown)
VH: QIHLVQSGTEVKKPGSSVTVSCKAYGVNTFGLYAVNWVRQAPGQSLEYIGQIWRWKSSASHHFRGRVLISAVDLTGSSPPISSLEIKNLTSDDTAVYFCTTTSTYDKWSGLHHDGVMAFSSWGQGTLISVSA
VL: DIQMTQSPSTLSASIGDTVRISCRASQSITGNWVAWYQQRPGKAPRLLIYRGAALLGGVPSRFSGSAAGTDFTLTIGNLQAEDFGTFYCQQYDTYPGTFGQGTKVEV
Consider B1, for which the neutralization IC50 in experiment [1] was 0.514 µg/mL; in experiment [2], > 50 µg/mL; in experiment [3], 0.284 µg/mL; in experiment [4], 0.195 µg/mL; in experiment [5], > 30 µg/mL; in experiment [6] it was 2.4 µg/mL. For the same molecule, the neutralization IC50 in [7] is 10.8 µg/mL; in [8], 0.095 µg/mL; in experiment [9], 0.52 µg/mL; in experiment [10], 0.986 µg/mL; in experiment [11] it was 0.08 µg/mL; in experiment [12], 1.52 µg/mL. For the same molecule, the neutralization IC50 in experiment [13] is 0.79 µg/mL; in experiment [14], > 30 µg/mL; in experiment [15] it was 9.63 µg/mL; in experiment [16], > 23 µg/mL. The molecule also came in with a mean neutralization IC50 in [17] of 2.3 µg/mL.
